# Assay results published in patent publication US20210403594A1 (IMMUNOGEN, published 2021).
# T1: human EpCAM (CD326) (human, UniProt P16422 24-314)
# T1 construct: whole, on cells; Antigen on the surface of the human cells used in flow cytometry and cytotoxicity assays; also called EpCAM on HSC2 cells; human-EpCAM expressing 300-19 cells
# T1 sequence (looked up): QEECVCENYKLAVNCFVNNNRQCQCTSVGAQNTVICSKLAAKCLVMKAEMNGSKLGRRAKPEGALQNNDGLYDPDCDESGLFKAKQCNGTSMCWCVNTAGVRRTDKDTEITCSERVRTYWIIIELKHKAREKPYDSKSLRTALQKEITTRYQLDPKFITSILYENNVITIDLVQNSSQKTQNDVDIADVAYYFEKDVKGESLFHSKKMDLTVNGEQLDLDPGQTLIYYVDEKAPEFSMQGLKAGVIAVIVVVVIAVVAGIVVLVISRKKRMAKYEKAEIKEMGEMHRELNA
# How the values were obtained:
# [1] = target: T1, human EpCAM (CD326); assay: flow cytometry on HSC2 cells; Geo Mean FL1 against concentration; Alexa Fluor Plus 488 goat anti-mouse IgG (Example 2)
# [2] = target: cynomolgus EpCAM (cynomolgus monkey); assay: flow cytometry on cyno kidney epithelial cells; Geo Mean FL1 against concentration; Alexa Fluor Plus 488 goat anti-mouse IgG (Example 2)
# Chain of cynomolgus EpCAM (cynomolgus monkey) (Q1WER1 24-314): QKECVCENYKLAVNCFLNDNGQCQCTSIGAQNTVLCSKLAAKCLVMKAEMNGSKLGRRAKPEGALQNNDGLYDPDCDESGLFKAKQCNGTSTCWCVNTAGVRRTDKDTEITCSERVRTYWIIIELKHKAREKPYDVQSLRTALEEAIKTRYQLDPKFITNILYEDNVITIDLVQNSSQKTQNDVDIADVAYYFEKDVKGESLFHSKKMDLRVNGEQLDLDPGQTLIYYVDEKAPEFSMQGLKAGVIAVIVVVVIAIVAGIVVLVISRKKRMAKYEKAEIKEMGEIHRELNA
binder,measurement,setting,value
"mEpCAM23 (antibody, mouse IgG2b, kappa, also called muEpCAM-23; muEpCAM23) heavy: EVKLEESGPALVKPGASVRISCKASGYTFTNYYIHWVKQRPGQGLDYIGWIYPGNVYIQYNEKFKGKATLTADKSSSTAFMQLSSLTSEDSAVYFCARDGPWFAYWGQGTLVTVSSAKTTPPSVYPLAPGCGDTTGSSVTLGCLVKGYFPESVTVTWNSGSLSSSVHTFPALLQSGLYTMSSSVTVPSSTWPSQTVTCSVAHPASSTTVDKKLEPSGPISTINPCPPCKECHKCPAPNLEGGPSVFIFPPNIKDVLMISLTPKVTCVVVDVSEDDPDVRISWFVNNVEVHTAQTQTHREDYNSTIRVVSALPIQHQDWMSGKEFKCKVNNKDLPSPIERTISKIKGLVRAPQVYILPPPAEQLSRKDVSLTCLVVGFNPGDISVEWTSNGHTEENYKDTAPVLDSDGSYFIYSKLDIKTSKWEKTDSFSCNVRHEGLKNYYLKKTISRSPGK light: DIVLTQTPFSNPVTLGTSASISCRSSKSLLHSDGFTYLYWFLQKPGQSPHLLIYQTSNLASGVPDRFSSSGSGTDFTLRISRVEAEDVGVYYCAQNLELPNTFGGGTKLEIKRADAAPTVSIFPPSSEQLTSGGASVVCFLNNFYPKDINVKWKIDGSERQNGVLNSWTDQDSKDSTYSMSSTLTLTKDEYERHNSYTCEATHKTSTSPIVKSFNRNEC",Kd,[1],0.38 nM
same,Kd,[2],0.79 nM
